Source: article doi:10.1101/2021.04.22.440356 (bioRxiv, 2021)

Molecular target: T1, yeast ubiquitin hydrolase 1 (YUH1) (S. cerevisiae, UniProt P35127 1-236)
T1 sequence (looked up): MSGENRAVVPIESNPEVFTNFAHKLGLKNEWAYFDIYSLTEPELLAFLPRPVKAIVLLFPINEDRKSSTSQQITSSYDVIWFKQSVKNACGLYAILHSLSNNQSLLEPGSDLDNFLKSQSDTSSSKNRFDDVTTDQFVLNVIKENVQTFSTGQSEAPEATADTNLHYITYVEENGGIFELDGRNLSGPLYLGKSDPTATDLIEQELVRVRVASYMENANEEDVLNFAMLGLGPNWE
Assay: NMR 1H-15N TROSY spectra of the complex

binding result: binds
B1: yeast ubiquitin (natural protein)
chain: not shown
modifications: 2H,15N-labelled
